The target of this assay is T1, GST-β-catenin (GST-β-cat (aa1–781)) (UniProt P35222 1-781).
T1 construct: β-catenin aa1–781; the cDNA may be mouse (surmise); source: E. coli XL1 blue or BL21-RE4, purified (glutathione-agarose)
T1 sequence (looked up): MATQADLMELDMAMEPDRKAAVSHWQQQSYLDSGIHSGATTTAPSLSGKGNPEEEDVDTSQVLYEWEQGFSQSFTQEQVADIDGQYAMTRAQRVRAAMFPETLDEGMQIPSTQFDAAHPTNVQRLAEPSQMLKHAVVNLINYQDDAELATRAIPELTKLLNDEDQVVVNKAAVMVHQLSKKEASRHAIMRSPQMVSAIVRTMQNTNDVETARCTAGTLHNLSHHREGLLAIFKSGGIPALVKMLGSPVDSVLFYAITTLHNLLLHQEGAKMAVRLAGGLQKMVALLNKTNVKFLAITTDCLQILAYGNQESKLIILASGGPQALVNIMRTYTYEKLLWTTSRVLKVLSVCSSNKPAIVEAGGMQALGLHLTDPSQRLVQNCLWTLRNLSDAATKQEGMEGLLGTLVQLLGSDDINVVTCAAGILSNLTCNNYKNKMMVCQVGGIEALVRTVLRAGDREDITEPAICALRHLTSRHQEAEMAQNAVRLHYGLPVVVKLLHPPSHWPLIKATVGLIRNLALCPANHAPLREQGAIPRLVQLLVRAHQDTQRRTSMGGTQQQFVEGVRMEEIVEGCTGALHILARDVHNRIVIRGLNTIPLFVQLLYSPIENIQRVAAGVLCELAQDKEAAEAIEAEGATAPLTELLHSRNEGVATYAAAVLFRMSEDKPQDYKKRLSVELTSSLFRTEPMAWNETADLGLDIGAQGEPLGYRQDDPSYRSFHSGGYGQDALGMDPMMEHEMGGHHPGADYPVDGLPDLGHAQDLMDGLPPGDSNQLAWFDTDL
In words: pull-down; 4 μg GST or GST fusion protein with 5 μg MBP fusion protein, 150 mM NaCl, 20 mM imidazole or HEPES pH 8.0, 2 mM MgCl2, 300 mM sucrose, 0.25% Triton X-100, 20 min at 4 °C; glutathione-agarose beads; western blot with anti-MBP. Conditions: both partners purified. (In general: In western blotting, separated proteins are transferred to a membrane and probed.)

B1: MBP-dNitFhit (natural protein, D. melanogaster, UniProt O76464 1-460, looked up)
chain: MSTLVNTTRRSIVIAIHQQLRRMSVQKRKDQSATIAVGQMRSTSDKAANLSQVIELVDRAKSQNACMLFLPECCDFVGESRTQTIELSEGLDGELMAQYRELAKCNKIWISLGGVHERNDQKIFNAHVLLNEKGELAAVYRKLHMFDVTTKEVRLRESDTVTPGYCLERPVSTPVGQIGLQICYDLRFAEPAVLLRKLGANLLTYPSAFTYATGKAHWEILLRARAIETQCFVVAAAQIGWHNQKRQSWGHSMIVSPWGNVLADCSEQELDIGTAEVDLSVLQSLYQTMPCFEHRRNDIYALTAYNLRSKEPTQDRPFATNIVDKRTIFYESEHCFAFTNLRCVVKGHVLVSTKRVTPRLCGLDCAEMADMFTTVCLVQRLLEKIYQTTSATVTVQDGAQAGQTVPHVHFHIMPRRLGDFGHNDQIYVKLDERAEEKPPRTIEERIEEAQIYRKFLTDIS
notes: Drosophila melanogaster NitFhit, amplified from the intronless genomic DNA; source: E. coli XL1 blue or BL21-RE4, purified (amylose resin)
On to B1, for which the binding result is reported as “binds”.
